According to patent US20060134709A1:

What was measured:
soluble FcγRIIB (human) = soluble FcγRIIB (human) (UniProt P31994); assay: ELISA
[1] = molecular target: soluble monomeric FcγRIIIA-linker-AVITAG (human) (UniProt P08637); assay: ELISA
[2] = molecular target: FcγRIIB-Fc fusion protein (human) (UniProt P31994); assay: BIAcore
[3] = molecular target: soluble monomeric FcγRIIIA-linker-AVITAG (human) (UniProt P08637); assay: BIAcore

Substance	fold increase vs wt (soluble FcγRIIB (human)) [x]	fold increase vs wt [1] [x]	also measured
ch4-4-20 P247L, I253N, K334N (antibody)	2.5	3	–
ch4-4-20 P247L, N421K (antibody)	–	3	fold vs wt [1]: 3 X; Kd [2]: 66 nM; koff [2]: 0.065 s⁻¹; Kd [3]: 62 nM; koff [3]: 0.108 s⁻¹
ch4-4-20 P247S, P396L (antibody)	4.2	1.2	–
ch4-4-20 P291S, P353Q (antibody)	–	–	fold decrease vs wt (soluble FcγRIIB (human)): 0.25 x; fold decrease vs wt [1]: 0.5 x
ch4-4-20 P343S, P353L, S375I, S383N (antibody)	6	0.5	–
ch4-4-20 Q419H, P396L (antibody)	6.9	2	–
ch4-4-20 Q419L, P396L (antibody)	6.1	2.2	–
ch4-4-20 R255L, P396L (antibody)	6	1.8	–
ch4-4-20 R292G (antibody)	–	–	Koff WT/Mut [2]: 0.67
ch4-4-20 R301H, K340E, D399E (antibody)	–	–	fold decrease vs wt (soluble FcγRIIB (human)): 0.25 x; fold decrease vs wt [1]: 0.5 x
ch4-4-20 S298N, K360R, N361D (antibody)	–	–	Koff WT/Mut [2]: 0.67
ch4-4-20 S298N, S407R (antibody)	7	0.5	–
ch4-4-20 S375C, P396L (antibody)	4.5	1.5	–
ch4-4-20 S400F, P396L (antibody)	4.7	1.5	–
ch4-4-20 S400P (antibody)	6	1	–
ch4-4-20 S407I (antibody)	4	0.5	–
ch4-4-20 S408I, V215I, V125L (antibody)	0.75	0.5	–
ch4-4-20 S415I, L251F (antibody)	0.75	0.5	–

Substance	fold increase vs wt (soluble FcγRIIB (human)) [x]	fold increase vs wt [1] [x]	also measured
ch4-4-20 T215P, K274N, A287G, K334N, L365V, P396L (antibody)	4	2	–
ch4-4-20 T223I, T256S, L406F (antibody)	6	0.25	–
ch4-4-20 T225S (antibody)	–	–	fold decrease vs wt (soluble FcγRIIB (human)): 0.5 x; fold decrease vs wt [1]: 0.25 x
ch4-4-20 T250S, P396L (antibody)	6.8	1.5	–
ch4-4-20 V215I, K290V, P396L (antibody)	4.6	2.2	–
ch4-4-20 V240A, P396L (antibody)	4.2	1.3	–
ch4-4-20 V240I, V281M (antibody)	–	–	fold decrease vs wt (soluble FcγRIIB (human)): 0.25 x; fold decrease vs wt [1]: 0.25 x
ch4-4-20 V273I, K326E, L328I, P396L (antibody)	10.8	1.3	–
ch4-4-20 V282E, V369I, L406F (antibody)	7	0.5	–
ch4-4-20 V303I, P396L (antibody)	4	1.1	–
ch4-4-20 V305L, P396L (antibody)	5.5	1.3	–
ch4-4-20 V323I, P396L (antibody)	8.2	1.1	–
ch4-4-20 V348M, K334N, F275I, Y202M, K147T (antibody)	0.75	0.5	–
ch4-4-20 V379M (antibody)	–	–	Kd [3]: 160 nM
ch4-4-20 V379M, P396L (antibody)	5.6	1.9	–
ch4-4-20 V427A, P396L (antibody)	4.7	1.9	–
ch4-4-20 Y319F, P352L, P396L (antibody)	–	–	Kd [2]: 55.7 nM; Kd [3]: 125 nM
